Test results from the supplement of paper PMC10126150.
± gives the standard deviation of the averaged measurements.

The sequences below were run on ATP (assay: switch fluorescence ratio, 500 uM ATP over buffer (Cy3 cluster intensity, sum of 5 cycles each) (fold (ratio)); higher = stronger signal-on switching upon ATP binding; sequences stand for … in TCGTCGGCAGCGTCAGATGTGTATAAGAGACAGTTTTTTTTTTTTTTTTTTTTTTTTT…TC). Details: aptamer strand: ATP DNA aptamer (quencher-CACCTGGGGGAGTATTGCGGAGGAAGG + anchor), 100 nM annealed; ATP concentration: 500 uM.
In short: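 Per cluster, summed Cy3 intensity from the target cycles was divided by that from the buffer cycles to give the fluorescence ratio, then averaged per switch-domain sequence. Clusters outside 100-1000 RFU were excluded. The Cy3-labelled switching-strand clusters, on a modified Illumina MiSeq flow-cell, were annealed to 100 nM quencher-labelled ATP aptamer and imaged in selection buffer, then after 15 min with 500 uM ATP at 22 °C, for five cycles with NaOH stripping and re-annealing between them.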
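Note: ATP exposure 15 min at 22 °C before imaging.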

Sequence	switch fluorescence ratio
GATTCTCTAT	1.008 ± 0.0033
GATTCTTGTT	1.02 ± 0.046
GATTGAATGG	0.985 ± 0.055
GATTGAATTT	0.989 ± 0.032
GATTGAGGAA	0.9864 ± 0.0061
GATTGATGGT	0.992 ± 0.021
GATTGCAGCG	1.002 ± 0.0016
GATTGCCTGT	0.981 ± 0.029
GATTGCGAGA	1.01 ± 0.036
GATTGCGGGC	1.03 ± 0.011
GATTGGAGGG	0.997 ± 0.026
GATTGGCACC	0.965 ± 0.014
GATTGGCAGC	1.015 ± 0.0035
GATTGGGGGC	1.04 ± 0.12
GATTGGGTTC	0.9685 ± 0.0036
GATTGGTTGT	1.01 ± 0.022
GATTGTAAAG	1.021 ± 0.01
GATTGTGACG	1.06 ± 0.057
GATTGTGCCG	1.03 ± 0.061
GATTGTTAGA	0.9891 ± 0.0081
GATTGTTCGT	1.031 ± 0.0085
GATTTAACGG	1.01 ± 0.038
GATTTAAGTT	0.9988 ± 0.0098
GATTTACGAT	1.026 ± 0.0019
GATTTAGGTG	1.12 ± 0.0065

Sequence	switch fluorescence ratio
GATTTCCCCG	1.18 ± 0.028
GATTTCCTGG	1.01 ± 0.02
GATTTGAATT	0.977 ± 0.025
GATTTGAGCG	0.9852 ± 0.0046
GATTTGAGTG	0.959 ± 0.027
GATTTGCGGG	0.9833 ± 0.0069
GATTTGTTTT	0.994 ± 0.013
GATTTTAGAG	0.9809 ± 0.003
GATTTTATTG	1.01 ± 0.017
GATTTTCAGA	0.998 ± 0.027
GATTTTCCTA	0.9608 ± 0.0014
GATTTTGGGT	1.02 ± 0.038
GATTTTGGTC	0.967 ± 0.054
GATTTTGTAG	1.01 ± 0.028
GATTTTGTCT	0.9923 ± 0.0099
GATTTTGTTT	0.996 ± 0.027
GATTTTTCAA	1 ± 0.021
GATTTTTGCC	1.01 ± 0.031
GATTTTTTAG	0.998 ± 0.018
GATTTTTTAT	0.999 ± 0.058
GCAAAAAGGA	1.6 ± 0.89
GCAAAAAGGT	0.996 ± 0.029
GCAAAAGAGA	0.994 ± 0.032
GCAAAAGGAA	0.975 ± 0.022
GCAAAAGGGC	1.02 ± 0.014

Sequence	switch fluorescence ratio
GCAAATGATG	1.01 ± 0.012
GCAACCGAGG	1.04 ± 0.064
GCAAGAAAAA	1.023 ± 0.0056
GCAAGACATT	1.12 ± 0.019
GCAAGAGGGT	1 ± 0.028
GCAAGCTGGG	1.01 ± 0.014
GCAATCATTC	1.18 ± 0.087
GCAATTGATG	1.04 ± 0.017
GCAATTGGGT	1.08 ± 0.012
GCAATTGTCG	1.02 ± 0.046
GCACATAGCT	1.01 ± 0.025
GCACATCTGT	0.99 ± 0.056
GCACATGGCC	1.03 ± 0.02
GCACCCGTAC	1.52 ± 0.037
GCACCTATGG	0.979 ± 0.025
GCACGCAGGA	1.054 ± 0.006
GCACGGATGT	1.029 ± 0.0097
GCACGGGGAA	1.02 ± 0.028
GCACTAAACT	1.05 ± 0.057
GCACTCGGCT	0.991 ± 0.0047
GCACTTGGGG	0.998 ± 0.057
GCACTTGGTC	0.989 ± 0.011
GCAGAAAAAA	0.988 ± 0.028
GCAGAATGCA	0.9861 ± 0.0024
GCAGACAGCT	1.037 ± 0.0085

Sequence	switch fluorescence ratio
GCAGACATAG	0.983 ± 0.025
GCAGACCATT	1.049 ± 0.0067
GCAGCAGATG	1.077 ± 0.0072
GCAGCATCGG	1.12 ± 0.021
GCAGCATCTG	1.01 ± 0.024
GCAGCATGC	1.1 ± 0.17
GCAGCCTGCT	0.985 ± 0.032
GCAGCCTGTT	0.994 ± 0.011
GCAGCTGGCT	1.02 ± 0.11
GCAGGAAGGG	0.977 ± 0.019
GCAGGAATTT	1 ± 0.038
GCAGGAGGGA	1.01 ± 0.039
GCAGGCAACT	0.995 ± 0.018
GCAGGCCACA	1.11 ± 0.065
GCAGGCGGGG	1.02 ± 0.034
GCAGGGACAA	1.01 ± 0.018
GCAGGGACCC	1.12 ± 0.12
GCAGGGAGGG	1 ± 0.041
GCAGGGGAGT	1.17 ± 0.29
GCAGGGTGTC	1.08 ± 0.048
GCAGGTATCA	1.018 ± 0.007
GCAGGTGGGG	1.1 ± 0.022
GCAGTAAAGC	1.03 ± 0.032
GCAGTAAGTT	0.978 ± 0.061
GCAGTAGTTA	1.03 ± 0.013
